In PMC4737123:

Key:
[1] = target: purified human IgM (non‐specific IgM) (human); experiment: AUC; sedimentation velocity, 40 000 r.p.m., 20°C, PBS; FV6 alone, IgM alone, and IgM (0.2 μM) with FV6 at molar ratios 1:1, 1:2 and 1:3; continuous size distribution (SEDFIT)
[2] = target: purified human IgM (non‐specific IgM) (human); experiment: SPR; Biacore 2000; IgM (750 RU) immobilised on a CM4 chip by amine coupling; FV6 or FV2 flowed over (1.125-18 nM); HEPES buffer (0.01 M HEPES, 0.15 M NaCl, 3 mM EDTA, 0.005% P20) pH 7.4, 20°C; global 1:1 interaction model

| Substance | stoichiometry N [1] [FV6 per IgM] | Kd [2] [pM] | koff [2] [s⁻¹] | kon [2] [M⁻¹ s⁻¹] |
| --- | --- | --- | --- | --- |
| recombinant full‐length HB3VAR06 (FV6), entire ectodomain of the PfEMP1 protein HB3VAR06 (domain or fragment) | 2 | 100 | 0.0003 | 2.3e+06 |
| recombinant full‐length IT4VAR04 (a VAR2CSA‐type PfEMP1; FV2) (natural protein) | – | 300 | 0.00051 | 1.8e+06 |
